Source: PMC5325305, “Structural and biochemical studies on Vibrio cholerae Hsp31 reveals a novel dimeric form and Glutathione-independent Glyoxalase activity” (PLoS ONE, 2017)

Experiments:
CC(=O)C=O = assay: purified protein; conditions: glutathione-independent, 100 mM sodium phosphate pH 7.5, 1 mM EDTA, 1 mM DTT (printed DDT), 37°C, text lists Km and Vmax values in swapped order, assigned by unit
[1] = test system: Cc1cc(=O)oc2cc(NC(=O)[C@H](C)N)ccc12; assay: purified protein; conditions: pH 8.0, 37°C, 20 mM Tris, 1 mM dithiothreitol, 3% dimethyl sulfoxide

VcHsp31 (Vibrio cholerae)
Km (CC(=O)C=O): 250.8 µM | kcat (CC(=O)C=O): 0.6628 s⁻¹ | Km [1]: 112.5 µM | kcat [1]: 0.00128 s⁻¹
